Results: IntAct's records for PubMed 7518772

B1: Receptor-type tyrosine-protein phosphatase alpha (Mus musculus), P18052 (parent)
chain: MDSWFILVLFGSGLIHVSANNATTVSPSLGTTRLIKTSTTELAKEENKTSNSTSSVISLSVAPTFSPNLTLEPTYVTTVNSSHSDNGTRRAASTESGGTTISPNGSWLIENQFTDAITEPWEGNSSTAATTPETFPPADETPIIAVMVALSSLLVIVFIIIVLYMLRFKKYKQAGSHSNSFRLSNGRTEDVEPQSVPLLARSPSTNRKYPPLPVDKLEEEINRRMADDNKLFREEFNALPACPIQATCEAASKEENKEKNRYVNILPFLSLAVSKDAVKALNKTTPLLERRFIGKSNSRGCLSDDHSRVHLTPVEGVPDSDYINASFINGYQEKNKFIAAQGPKEETVNDFWRMIWEQNTATIVMVTNLKERKECKCAQYWPDQGCWTYGNVRVSVEDVTVLVDYTVRKFCIQQVGDVTNRKPQRLITQFHFTSWPDFGVPFTPIGMLKFLKKVKACNPQYAGAIVVHCSAGVGRTGTFVVIDAMLDMMHSERKVDVYGFVSRIRAQRCQMVQTDMQYVFIYQALLEHYLYGDTELEVTSLETHLQKIYNKIPGTSNNGLEEEFKKLTSIKIQNDKMRTGNLPANMKKNRVLQIIPYEFNRVIIPVKRGEENTDYVNASFIDGYRQKDSYIASQGPLLHTIEDFWRMIWEWKSCSIVMLTELEERGQEKCAQYWPSDGLVSYGDITVELKKEEECESYTVRDLLVTNTRENKSRQIRQFHFHGWPEVGIPSDGKGMINIIAAVQKQQQQSGNHPITVHCSAGAGRTGTFCALSTVLERVKAEGILDVFQTVKSLRLQRPHMVQTLEQYEFCYKVVQEYIDAFSDYANFK

Variants of: B1
Settings: with src_mouse Src

effect of a mutation on the interaction	Variant
disrupting interaction	Y825F
